The text below walks through data of PMC7596504, “Molecular mechanism of the MORC4 ATPase activation” (Nature Communications, 2020).

The chains are these.
B1: MORC4 ATPaseCW cassette (aa 29-486) (domain or fragment, human, UniProt Q8TE76 29-486, looked up)
chain: GIRLSTMSPRYLQSNSSSHTRPFSAIAELLDNAVDPDVSARTVFIDVEEVKNKSCLTFTDDGCGMTPHKLHRMLSFGFTDKVIKKSQCPIGVFGNGFKSGSMRLGKDALVFTKNGGTLTVGLLSQTYLECVQAQAVIVPIVPFNQQNKKMIITEDSLPSLEAILNYSIFNRENDLLAQFDAIPGKKGTRVLIWNIRRNKNGKSELDFDTDQYDILVSDFDTEEKMTGGVTSELPETEYSLRAFCGILYMKPRMKIFLRQKKVTTQMIAKSLANVEYDTYKPTFTNKQVRITFGFSCKNSNQFGIMMYHNNRLIKSFEKVGCQVKPTRGEGVGVIGVIECNFLKPAYNKQDFEYTKEYRLTINALAQKLNAYWKEKTSQDNFETSTVARPIPKVPDQTWVQCDECLKWRKLPGKIDPSMLPARWFCYYNSHPKYRRCSVPEEQELTDEDLCLSKAKKQE
notes: ATPase domain and CW domain of human MORC4, aa 29-486, cloned into pDEST15; Homodimer in the crystal with AMPPNP and Mg2+; source: E. coli Rosetta2 (DE3) pLysS or BL21 (DE3) RIL, purified (glutathione agarose, GST tag cleaved, SEC)
B2: unmodified histone H3 peptide (aa 1-12 of H3) (peptide, UniProt P68431 2-13, looked up)
peptide: ARTKQTARKSTG
notes: N-terminal tail of histone H3, aa 1-12; also called H3K4; unmodified H3 peptide

Changes are numbered by the printed parent chain. Where no end group is shown, it is not given here. Me3 = trimethyl

The target in data set [1] is B1. The data set is described as follows: other fluorescence titration; tryptophan fluorescence, 25 °C; ATPaseCW in the presence of 601 DNA (ATPaseCW:601 DNA complex), increasing histone peptide. Particulars: both partners purified.
Data set [2] addresses B1. Kind of data set: other fluorescence titration; tryptophan fluorescence, 25 °C; 0.5-1 µM ATPaseCW or CW in 20 mM Tris pH 6.8, 100 mM NaCl, 2 mM DTT, increasing histone peptide. As to conditions: both partners purified.
The target of data set [3] is T1, MORC4 CW domain (aa 417-475) (human, UniProt Q8TE76 417-475).
T1 construct: CW-type zinc finger domain of human MORC4, aa 417-475, cloned into pGEX 6p-1; Uniformly 15N-labelled in the NMR experiments; unlabelled protein was further purified by size exclusion chromatography; also called WT MORC4 CW domain; source: E. coli Rosetta2 (DE3) pLysS or BL21 (DE3) RIL, purified (glutathione agarose, GST tag cleaved)
T1 sequence (looked up): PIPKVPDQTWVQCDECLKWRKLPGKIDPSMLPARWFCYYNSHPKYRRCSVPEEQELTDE
The description is as above. Particulars: both partners purified.

For data set [4], the target named is T2, MORC4 CW domain K460A/R462A/R463A (human, UniProt Q8TE76 417-475, K460A | R462A | R463A).
T2 construct: CW-type zinc finger domain of human MORC4, aa 417-475, triple mutant; Uniformly 15N-labelled in the NMR experiment; also called CWKRR; MORC4 CWKRR; source: E. coli, grown and purified as wild-type protein (glutathione agarose, GST tag cleaved)
T2 sequence (looked up): T1 sequence (looked up) with K44A, R46A, R47A
The data set is described as follows: NMR titration; 1H,15N HSQC of 15N-labelled CWKRR titrated with H3K4me3 peptide; 20 mM Tris-HCl pH 6.8, 150 mM NaCl, 2 mM DTT. As to conditions: both partners purified.

Data set [5] deals with the molecule itself. Kind of data set: crystal structure; ATPaseCW (aa 29-486) with AMPPNP and Mg2+, 2.9 Å; crystallised after incubation with H3K4me3 peptide and 2 mM AMPPNP.

Regarding ARTK(Me3)QTARKSTG (peptide, UniProt P68431 2-13, looked up, N-terminal tail of histone H3, aa 1-12) [histone H3K4me3 peptide (aa 1-12 of H3)], the dissociation constant Kd in data set [1] came out at 40 nM; in data set [2] it was 180 nM; in data set [3], 112 nM. Also, the binding result in data set [4] is “binds”.

Consider B1, for which, in data set [5], the binding result is “binds”.

In data set [3], B2 showed a Kd of 2700 nM.
